Measured values taken from the nanobody polyreactivity screen of Harvey et al. (2022).

Assay: yeast display, Sf9 membrane polyspecificity reagent, FACS + sequencing; frameworks hold sequencing errors
Outline: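 After 36–48 hours of galactose induction, yeast (Saccharomyces cerevisiae BJ5465) displaying a synthetic nanobody library were stained at 4 °C for 1 hour with 10% biotinylated, detergent-solubilized Sf9 membrane reagent. Streptavidin microbeads enriched the stained cells before FACS sorting into low and high (top ~1%) gates on anti-HA and streptavidin fluorescence. Each clone's polyreactivity label reflects its gate of origin.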

Q: For “QVQLVESGGGLVQAGGSLRLSCAASGRTFGSNAMGWYRQAPGKERELVAAISLRGGRTYYADSVKGRFTISRDNAKNTVYLQMNSLKPEDTAVYYCNAVHYLYGARSRLTYDYWGQGTQVTVSS”, which “polyreactivity (PSR sort gate)” value is on record?
A: The value was “high polyreactivity”.

Q: For “QVQLVESGGGLVQAGGSLRLSCAASGLTFHRYAMGWYRPAPGKERELVAGISWSGASTYYADSVKGRFTISRDNAKNTVYLQMNSLKPEDTAVYYCAARRYYKYDWGQGTQVTVSS”, which “polyreactivity (PSR sort gate)” value is on record?
A: The value was “high polyreactivity”.

Q: With “QVQLVESGGGLVQAGGILRLSCAASGLIFSYNTMGWYRHAPGKERELVAGNTSSGSTYYADSVKGRFTISRDNAKNSVYLQMNSLKPEDTAVYYCAAEWDDGRSWYWYYLVGFEYWGQGTQVTVSS” as the sequence, how does the “polyreactivity (PSR sort gate)” value read?
A: The value was “high polyreactivity”.

Q: With “QVKLVESGGGLVQAGGSLRLSCAASGRTFPSYAMGWYRQAPGKERELVAAISRSGGSTYYADSVKGRFTISRDNAKNPVYLQMNSLKPEDTAVYYCAAVSRVHFSYIYDYWGQGTQVTVSS” as the sequence, how does the “polyreactivity (PSR sort gate)” value read?
A: Its value is “high polyreactivity”.

Q: Which “polyreactivity (PSR sort gate)” value does the source give for “QVQLVESGGGLVQAGGSLRLSCAASGRTFRTYDMGWYRQEPGKERELVAAITSRAGSTYYADSVKGRFTISRDNAKNTVFLQMNRLKPEDTAVYYCAKQYYYGWYWGEDYWGQGSQVTVSS” here?
A: Its value is “low polyreactivity”.

Q: For “QQLQESGGGLVQAGGSLRLSCAASGSISGSVLMGWYRQAPGKEREFVASISLGGNTNYADSVKGRFTISRENAKNTVYLQMNSLKPEVAAVYYCAAYISLFETHPYWGQGTQVTVSS”, which “polyreactivity (PSR sort gate)” value is on record?
A: Its value is “high polyreactivity”.

Q: Which “polyreactivity (PSR sort gate)” value does the source give for “QVQLVESGGGLVQAGGSLRLSCAASGITFPYYAMGWYRQAPGKERELVAAITTGGGSTYYADSVKGRFTISRDNAKNTVYLQMNSLKPEDTAVYYCAAANLRARTGPRRGYEYWGQGTQVTVSS” here?
A: Its value is “high polyreactivity”.

Q: With “QVHLVESGGGLVQAGGSLRLSCAASGVIFFYYAMGWYRQAPGKESELVAVIDRSGGTTYYADSVKGRFTISRDNAKNTVYLQMNSLKPEDTAVYYCNADDFTYPSGWGFIYDYWGQGTQVTVSS” as the sequence, how does the “polyreactivity (PSR sort gate)” value read?
A: Its value is “low polyreactivity”.

Q: Which “polyreactivity (PSR sort gate)” value does the source give for “QVQLVESGGRLVQAGGSLRLSCASSGRTFYPNAMGWYRHAPGKESELVAGIRSSGDSTYYADSVKGRFTISRDNAKNTVYLQMNSLKPEDTAVYYCNRDLTPSYDYWGQCTQVTVSS” here?
A: Its value is “low polyreactivity”.

Q: Which “polyreactivity (PSR sort gate)” value does the source give for “QVQLVESGGGLGQAGGSLRLSCAASGRTFTGYAMGWYRQAPGKERELVATISRSGGTTSYADSVKGRFTISRDNAKNTVYVQMNSLKPVDTAVYYCAADRRSRPYYYWGQGTQVTVSS” here?
A: The value was “high polyreactivity”.

Q: With “QVQLVESGGGLVQAGGSLRLSCAASGNNFRYNAMVWYRQAPGKERELVAAISSVGTTNYADSVKGRFTISRDNAKNTVYLQMNSLKPEDTAVYYCAAVDYQGGYWYDYWGQGTQVTVSS” as the sequence, how does the “polyreactivity (PSR sort gate)” value read?
A: Its value is “low polyreactivity”.

Q: For “QVQLVESGGGLVQAGGSLRLSCAASGSTFAYNAMGWYRQAPGKERELVAVITWSDDRTYYADSVKGRFTISRDNAKNTVYLQMNSLKPEDTSVYYCAADRSGYWHYYTPYDYWGQGTQVTVSS”, which “polyreactivity (PSR sort gate)” value is on record?
A: The value was “low polyreactivity”.

Q: Which “polyreactivity (PSR sort gate)” value does the source give for “QDQLVESGGGLVQAGGSLRLSCAASGRTFHRNAMGLYRQAPGKERELVAAITGTGGRTYYADSVKGRFTISRDNAKNTVYLQMNSLKPEDTEVYYCAARPWIKSGYWGQGTQVTVSW” here?
A: The value was “high polyreactivity”.

Q: For “QVQLVESGGGLVQAGGSLRLSCAASGRIFDPYAMGGYRQAPGKERELVANITLRGGITYYADSVKGRFTISRDNAKNTVYLQMNSLKPEDTAVYDCNADGYPDVGAGTYGYWGQGTQVTVSS”, which “polyreactivity (PSR sort gate)” value is on record?
A: The value was “low polyreactivity”.

Q: With “QVQLVESGGGLVQAGGSLRLSCAASGRTFSKYAMGWYRQAPGKERELVAAISSGGSTNYADSVKGRFTISRDNAKNTVYLQMISLKPEDTAVYYFARTTNWRHSYAYYYLHGHDYWGQGTQVTVSS” as the sequence, how does the “polyreactivity (PSR sort gate)” value read?
A: The value was “high polyreactivity”.

Q: For “QVKLEESGGGLVQAGGSLRLSCAASGSTFPGNAMGSYRQAPGKERELVAAINWSGDSTYYADSVKGRFTNSRDKPKNTVYLQMNSLTPEDTAVYYCAAYGDGYYYWGQGTQVTVSS”, which “polyreactivity (PSR sort gate)” value is on record?
A: The value was “low polyreactivity”.

Q: Which “polyreactivity (PSR sort gate)” value does the source give for “QVQLVESGGGLVQAGGSLRLSCAASGITFFWYDMGWYRQAPGKERELVASISSGGTTSYADSVKGRFTISRDNAKNTVYLQMNSLKPEDTAVYYCAATHWNRWHFDYWGQGTQVTVSS” here?
A: Its value is “low polyreactivity”.

Q: With “QVQLVESGGGLVQAGGSLRLSCAASGFIFDRYAMGWYRQAPGKERELVAAISSGGSTYYADSVKGRFTISRDNAKNTVYLQMNSLKPEDTAVYYCAAESWLNFIYEYDYWGQGTQVTVSS” as the sequence, how does the “polyreactivity (PSR sort gate)” value read?
A: The value was “low polyreactivity”.

Q: Which “polyreactivity (PSR sort gate)” value does the source give for “QDQLVESGGGLVQAGGSLRLSCAASGTFRRYAMGWYRKAPGKERELVAAISSGGGSTYYADSVKGRFTISRDNAKNTVYLQMNSLKPEDTAVYDCAAANSYTFRYGSWGQGTQVTVSS” here?
A: Its value is “high polyreactivity”.

Q: Which “polyreactivity (PSR sort gate)” value does the source give for “QVQLVESGGGLVLAGGRLRLSCAASGSTFGYYAMGWYRQAHGKERELVAAISQGAGRTYYADSVKGRFTISRDNAKNTDYLQMNSLKPEDSAVYYFAASVTVHRWAYGYWGQGTQVTVSS” here?
A: The value was “high polyreactivity”.

Q: Which “polyreactivity (PSR sort gate)” value does the source give for “QVQLVESAGGLVQAGGSLRLICAASGSTFTYYPMGWYRQAPGKERELVAAISGSGGRTYYADSVKGLFTISRDNAKNTVYLQMNSLKPEDTAVYYCNARATSLVPGRPKQYTYYYWGQGTQVTVSS” here?
A: Its value is “high polyreactivity”.

Q: With “QVHLVESGGGLVQAGGSLRLSCAASGSIFPYAMGWYRHAPAKERELVAVISWSGASTYYADSVKGRFTISRDNAKNTVYLQMNSLKQEDTAVYYCAVYRYYKLVHLYGYDYWGQGTQVTVSS” as the sequence, how does the “polyreactivity (PSR sort gate)” value read?
A: The value was “high polyreactivity”.

Q: Which “polyreactivity (PSR sort gate)” value does the source give for “QVQLVESGGGLVQAGGSLRLSCAASGYTFLDYAMGWYRQAPGKERELVAAINSGGSTYYADSEKGRFTISRDNAKNTVYLQMNSLKPEDTAVYYCAVDPPYSYSLSRYGYWGQGTQVTVSS” here?
A: Its value is “low polyreactivity”.

Q: With “QVQLVESGGGLVQAGGSLRLSCAASGFTLYFYAMGWYRQAPGKERELVATITGSGGSTTYADSVKGRFTISRDNAKNTVYLQMNRLKPEDTAVSYCAAVRVVRASRYQTYHWQPGYCYWGQGTQVTVSS” as the sequence, how does the “polyreactivity (PSR sort gate)” value read?
A: The value was “high polyreactivity”.

Q: For “QVQLVESGGGLVQAGGSLRLSCAASGFTFPGYAMGGYRQAPGKERELVAAISSTDRTTYADSVKGRFTISRDNAKNTVYLQMNSLKPEDTAVYYCNTATRRRPRGYWGQGTQVTVSS”, which “polyreactivity (PSR sort gate)” value is on record?
A: The value was “high polyreactivity”.

Q: With “QVQLVESGGGLVQAGGSLRLSCAASGFTFDNYVMGWYRQAPGKERELVAAISKSGTSTYYADSVKGRFTISRDNAKNTVYLQMNSLKPEDTAVSYCAARQYSQEPYDYWGQGTQVTVSS” as the sequence, how does the “polyreactivity (PSR sort gate)” value read?
A: Its value is “high polyreactivity”.

Q: Which “polyreactivity (PSR sort gate)” value does the source give for “QVQLVESGGGLVQAGGSLRLSCAASGSIFVGYAMGWYRQAPGKERDLVAAIDSTVSTYYADSVKGRFTISRDNAKNTVYLQMNSLKPEDTAVYYCAAYPRPDIGYTDGYVWYEFDYWGQGTQVTVSS” here?
A: The value was “low polyreactivity”.

Q: For “QVQLVESGGGIVQAGGSLRLSCAASGSIFVENAMGWTRQAPGKERELVAAISSDASTNYADSVKGRFTISRDNAKNTVFLQRNSLKPEDTAVYYCAAGYNQHGQYDYWGQGTQVTVSS”, which “polyreactivity (PSR sort gate)” value is on record?
A: The value was “low polyreactivity”.

Q: Which “polyreactivity (PSR sort gate)” value does the source give for “QVQLVESGGGLVQAGGSLRLSCAASGNIFESYGMGWYRHAPGKERELVATINTSSGSTYDADSVKGRFTISRDNAKNTVYLQMNSLKPEDTAVYYCAAEWYPYPWGYGYWGQGTQVTVSS” here?
A: The value was “low polyreactivity”.

Q: Which “polyreactivity (PSR sort gate)” value does the source give for “QVQLVESGGGLVQAGGSLRLSCAASGFIFRVNAMGWYRQAPGKERELVATITWNGGSTYYADSVKGRFTISRDNAKNTVYLQMNSLKPEDTAVYYCNRVRYRGYYPGPYSYSYDYWGQGTQVTVSS” here?
A: Its value is “low polyreactivity”.

Q: For “QVQLVESGGGLVQAGGSLRLSCAASGSIFAAYAMGWYRQAPGKERELVAAITSGGGTYYADSVKGRFTISRDNAKNTVYLQMNSLKPEDTAGYYCNAGNTYNRVIWPYYYWGQGTQVTVSS”, which “polyreactivity (PSR sort gate)” value is on record?
A: Its value is “high polyreactivity”.
